Assay results from the supplement of paper PMC12783771.
± gives the standard deviation of the averaged measurements.

B1: library; numbered along this chain (parent)
chain: MNIQIGELAKRTACPVVTIRFYEQEGLLPPPGRSRGNFRLYGEEHVERLQFIRHCRSLDMPLSDVRTLLSYRKRPDQDCGEVNMLLDEHIRQVESRIGALLELKHHLVELREACSGARPAQSCGILQGLSDCVCDTRGTTAHPSD

Experiments:
[1] = variants of: B1; assay: sfGFP reporter fluorescence (15 h) (µM FITC); higher = higher leak; conditions: library round: Round 1; ligand: none
Experimental: (§1)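 Cell-free biosensing: 1 µL Echo-assembled CFE reactions with linear PbrR variant templates (5 nM) and pPbrR-sfGFP reporter, with 1 µM Pb, 30 µM Zn or no ligand; endpoint sfGFP fluorescence after 15 h at 30 °C calibrated as µM FITC. Round 1 ML-predicted PbrR mutants; 3 biological replicates.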

[2] = variants of: B1; assay: sfGFP reporter fluorescence (15 h) (µM FITC); higher = stronger transcriptional activation; conditions: library round: Round 1
Experimental: as §1

## L62I K104V
[1]
  sfGFP reporter fluorescence: 0.072 ± 0.0011
[2]; ligand: 1 µM Pb
  sfGFP reporter fluorescence: 0.109 ± 0.0031
[2]; ligand: 30 µM Zn
  sfGFP reporter fluorescence: 0.417 ± 0.022

## L58F K104V
[1]
  sfGFP reporter fluorescence: 0.0645 ± 0.00097
[2]; ligand: 1 µM Pb
  sfGFP reporter fluorescence: 0.0808 ± 0.00092
[2]; ligand: 30 µM Zn
  sfGFP reporter fluorescence: 0.182 ± 0.024

## D64T D135A
[1]
  sfGFP reporter fluorescence: 0.13 ± 0.0033
[2]; ligand: 1 µM Pb
  sfGFP reporter fluorescence: 0.23 ± 0.0095
[2]; ligand: 30 µM Zn
  sfGFP reporter fluorescence: 1.63 ± 0.1

## D64T D135R
[1]
  sfGFP reporter fluorescence: 0.137 ± 0.008
[2]; ligand: 1 µM Pb
  sfGFP reporter fluorescence: 0.29 ± 0.041
[2]; ligand: 30 µM Zn
  sfGFP reporter fluorescence: 1.76 ± 0.28

## D64K C79L
[1]
  sfGFP reporter fluorescence: 0.0594 ± 0.00097
[2]; ligand: 1 µM Pb
  sfGFP reporter fluorescence: 0.05925 ± 0.00021
[2]; ligand: 30 µM Zn
  sfGFP reporter fluorescence: 0.0572 ± 0.00064

## M60L P61N D64K K104T
[1]
  sfGFP reporter fluorescence: 0.137 ± 0.0056
[2]; ligand: 1 µM Pb
  sfGFP reporter fluorescence: 0.446 ± 0.019
[2]; ligand: 30 µM Zn
  sfGFP reporter fluorescence: 1.18 ± 0.11

## P61L K104V
[1]
  sfGFP reporter fluorescence: 0.0638 ± 0.00097
[2]; ligand: 1 µM Pb
  sfGFP reporter fluorescence: 0.0617 ± 0.005
[2]; ligand: 30 µM Zn
  sfGFP reporter fluorescence: 0.0765 ± 0.0044

## L62I R111L
[1]
  sfGFP reporter fluorescence: 0.0639 ± 0.002
[2]; ligand: 1 µM Pb
  sfGFP reporter fluorescence: 0.0671 ± 0.0036
[2]; ligand: 30 µM Zn
  sfGFP reporter fluorescence: 0.143 ± 0.0089

## D64K D131A
[1]
  sfGFP reporter fluorescence: 0.131 ± 0.0097
[2]; ligand: 1 µM Pb
  sfGFP reporter fluorescence: 0.37 ± 0.032
[2]; ligand: 30 µM Zn
  sfGFP reporter fluorescence: 1.76 ± 0.11

## D64K D131L
[1]
  sfGFP reporter fluorescence: 0.176 ± 0.017
[2]; ligand: 1 µM Pb
  sfGFP reporter fluorescence: 0.513 ± 0.098
[2]; ligand: 30 µM Zn
  sfGFP reporter fluorescence: 1.89 ± 0.093

## D64K D131C
[1]
  sfGFP reporter fluorescence: 0.0864 ± 0.0047
[2]; ligand: 1 µM Pb
  sfGFP reporter fluorescence: 0.282 ± 0.026
[2]; ligand: 30 µM Zn
  sfGFP reporter fluorescence: 0.929 ± 0.032

## D64K N83S I90N
[1]
  sfGFP reporter fluorescence: 0.0679 ± 0.0014
[2]; ligand: 1 µM Pb
  sfGFP reporter fluorescence: 0.223 ± 0.065
[2]; ligand: 30 µM Zn
  sfGFP reporter fluorescence: 0.737 ± 0.02

## N83I I97H
[1]
  sfGFP reporter fluorescence: 0.0618 ± 0.0012
[2]; ligand: 1 µM Pb
  sfGFP reporter fluorescence: 0.0654 ± 0.0032
[2]; ligand: 30 µM Zn
  sfGFP reporter fluorescence: 0.0625 ± 0.003

## D64K V108E
[1]
  sfGFP reporter fluorescence: 0.0746 ± 0.0013
[2]; ligand: 1 µM Pb
  sfGFP reporter fluorescence: 0.165 ± 0.015
[2]; ligand: 30 µM Zn
  sfGFP reporter fluorescence: 1.42 ± 0.1

## D64T E112I D135A
[1]
  sfGFP reporter fluorescence: 0.08637 ± 0.00056
[2]; ligand: 1 µM Pb
  sfGFP reporter fluorescence: 0.197 ± 0.029
[2]; ligand: 30 µM Zn
  sfGFP reporter fluorescence: 1.56 ± 0.079

## N83S D131A D135A
[1]
  sfGFP reporter fluorescence: 0.0661 ± 0.0022
[2]; ligand: 1 µM Pb
  sfGFP reporter fluorescence: 0.082 ± 0.01
[2]; ligand: 30 µM Zn
  sfGFP reporter fluorescence: 0.275 ± 0.028

## D64G N83S D135A
[1]
  sfGFP reporter fluorescence: 0.0656 ± 0.00097
[2]; ligand: 1 µM Pb
  sfGFP reporter fluorescence: 0.0915 ± 0.002
[2]; ligand: 30 µM Zn
  sfGFP reporter fluorescence: 0.292 ± 0.0096

## R33M Q127T
[1]
  sfGFP reporter fluorescence: 0.0635 ± 0.0027
[2]; ligand: 1 µM Pb
  sfGFP reporter fluorescence: 0.0614 ± 0.0047
[2]; ligand: 30 µM Zn
  sfGFP reporter fluorescence: 0.0645 ± 0.0022

## N83T D135V P143A
[1]
  sfGFP reporter fluorescence: 0.0633 ± 0.0021
[2]; ligand: 1 µM Pb
  sfGFP reporter fluorescence: 0.0745 ± 0.0035
[2]; ligand: 30 µM Zn
  sfGFP reporter fluorescence: 0.189 ± 0.0083

## D64T G128I D135A
[1]
  sfGFP reporter fluorescence: 0.4487 ± 0.003
[2]; ligand: 1 µM Pb
  sfGFP reporter fluorescence: 0.801 ± 0.052
[2]; ligand: 30 µM Zn
  sfGFP reporter fluorescence: 2.35 ± 0.3

## M60L P61L
[1]
  sfGFP reporter fluorescence: 0.0689 ± 0.00037
[2]; ligand: 1 µM Pb
  sfGFP reporter fluorescence: 0.081 ± 0.0019
[2]; ligand: 30 µM Zn
  sfGFP reporter fluorescence: 0.156 ± 0.015

## N83I K104V
[1]
  sfGFP reporter fluorescence: 0.0628 ± 0.0011
[2]; ligand: 1 µM Pb
  sfGFP reporter fluorescence: 0.356 ± 0.026
[2]; ligand: 30 µM Zn
  sfGFP reporter fluorescence: 0.0679 ± 0.0048

## R33C K104V
[1]
  sfGFP reporter fluorescence: 0.06255 ± 0.00056
[2]; ligand: 1 µM Pb
  sfGFP reporter fluorescence: 0.0618 ± 0.0011
[2]; ligand: 30 µM Zn
  sfGFP reporter fluorescence: 0.0646 ± 0.0015

## M60L D64K D131C
[1]
  sfGFP reporter fluorescence: 0.344 ± 0.036
[2]; ligand: 1 µM Pb
  sfGFP reporter fluorescence: 0.896 ± 0.29
[2]; ligand: 30 µM Zn
  sfGFP reporter fluorescence: 2.2 ± 0.15

## P30A V46R
[1]
  sfGFP reporter fluorescence: 0.0618 ± 0.0011
[2]; ligand: 1 µM Pb
  sfGFP reporter fluorescence: 0.0716 ± 0.0014
[2]; ligand: 30 µM Zn
  sfGFP reporter fluorescence: 0.298 ± 0.024

## M60L P61N D64K D131C
[1]
  sfGFP reporter fluorescence: 0.194 ± 0.0087
[2]; ligand: 1 µM Pb
  sfGFP reporter fluorescence: 0.7 ± 0.062
[2]; ligand: 30 µM Zn
  sfGFP reporter fluorescence: 1.15 ± 0.26

## P61N D64K N83T
[1]
  sfGFP reporter fluorescence: 0.0684 ± 0.00076
[2]; ligand: 1 µM Pb
  sfGFP reporter fluorescence: 0.232 ± 0.045
[2]; ligand: 30 µM Zn
  sfGFP reporter fluorescence: 0.635 ± 0.034

## D64T D131C
[1]
  sfGFP reporter fluorescence: 0.143 ± 0.0074
[2]; ligand: 1 µM Pb
  sfGFP reporter fluorescence: 0.359 ± 0.033
[2]; ligand: 30 µM Zn
  sfGFP reporter fluorescence: 1.51 ± 0.07

## P61N D131A P143W
[1]
  sfGFP reporter fluorescence: 0.0886 ± 0.0011
[2]; ligand: 1 µM Pb
  sfGFP reporter fluorescence: 0.134 ± 0.023
[2]; ligand: 30 µM Zn
  sfGFP reporter fluorescence: 0.59 ± 0.051

## P61N D64A
[1]
  sfGFP reporter fluorescence: 0.0855 ± 0.0012
[2]; ligand: 1 µM Pb
  sfGFP reporter fluorescence: 0.183 ± 0.013
[2]; ligand: 30 µM Zn
  sfGFP reporter fluorescence: 1.07 ± 0.098

## P61N D64T
[1]
  sfGFP reporter fluorescence: 0.345 ± 0.02
[2]; ligand: 1 µM Pb
  sfGFP reporter fluorescence: 1.06 ± 0.11
[2]; ligand: 30 µM Zn
  sfGFP reporter fluorescence: 3.56 ± 0.13

## M60L D64K L107C E109L G128I D131T
[1]
  sfGFP reporter fluorescence: 2.84 ± 0.3
[2]; ligand: 1 µM Pb
  sfGFP reporter fluorescence: 2.23 ± 0.17
[2]; ligand: 30 µM Zn
  sfGFP reporter fluorescence: 2.37 ± 0.23

## P61N D64T E112I
[1]
  sfGFP reporter fluorescence: 0.0771 ± 0.0039
[2]; ligand: 1 µM Pb
  sfGFP reporter fluorescence: 0.153 ± 0.018
[2]; ligand: 30 µM Zn
  sfGFP reporter fluorescence: 0.942 ± 0.03

## P61D D64K L107C
[1]
  sfGFP reporter fluorescence: 1.58 ± 0.082
[2]; ligand: 1 µM Pb
  sfGFP reporter fluorescence: 1.54 ± 0.35
[2]; ligand: 30 µM Zn
  sfGFP reporter fluorescence: 2.2 ± 0.1

## D64A C134M
[1]
  sfGFP reporter fluorescence: 0.135 ± 0.0022
[2]; ligand: 1 µM Pb
  sfGFP reporter fluorescence: 0.233 ± 0.0049
[2]; ligand: 30 µM Zn
  sfGFP reporter fluorescence: 1.77 ± 0.21

## N83R D135A
[1]
  sfGFP reporter fluorescence: 0.0635 ± 0.0017
[2]; ligand: 1 µM Pb
  sfGFP reporter fluorescence: 0.0787 ± 0.005
[2]; ligand: 30 µM Zn
  sfGFP reporter fluorescence: 0.0875 ± 0.0015

## D64A D135R
[1]
  sfGFP reporter fluorescence: 0.0876 ± 0.00097
[2]; ligand: 1 µM Pb
  sfGFP reporter fluorescence: 0.18 ± 0.034
[2]; ligand: 30 µM Zn
  sfGFP reporter fluorescence: 1.55 ± 0.021

## P30V K104V
[1]
  sfGFP reporter fluorescence: 0.0683 ± 0.002
[2]; ligand: 1 µM Pb
  sfGFP reporter fluorescence: 0.117 ± 0.0083
[2]; ligand: 30 µM Zn
  sfGFP reporter fluorescence: 0.641 ± 0.092

## N83T D131A
[1]
  sfGFP reporter fluorescence: 0.0649 ± 0.0029
[2]; ligand: 1 µM Pb
  sfGFP reporter fluorescence: 0.0917 ± 0.0025
[2]; ligand: 30 µM Zn
  sfGFP reporter fluorescence: 0.169 ± 0.016

## N83T D131H
[1]
  sfGFP reporter fluorescence: 0.0632 ± 0.0011
[2]; ligand: 1 µM Pb
  sfGFP reporter fluorescence: 0.0836 ± 0.0011
[2]; ligand: 30 µM Zn
  sfGFP reporter fluorescence: 0.14 ± 0.012

## N83T D131C
[1]
  sfGFP reporter fluorescence: 0.0627 ± 0.0013
[2]; ligand: 1 µM Pb
  sfGFP reporter fluorescence: 0.0738 ± 0.0019
[2]; ligand: 30 µM Zn
  sfGFP reporter fluorescence: 0.0784 ± 0.0036

## N83T D131S
[1]
  sfGFP reporter fluorescence: 0.0602 ± 0.0017
[2]; ligand: 1 µM Pb
  sfGFP reporter fluorescence: 0.0836 ± 0.0031
[2]; ligand: 30 µM Zn
  sfGFP reporter fluorescence: 0.146 ± 0.016

## P61E D64K D131C
[1]
  sfGFP reporter fluorescence: 0.108 ± 0.0035
[2]; ligand: 1 µM Pb
  sfGFP reporter fluorescence: 0.243 ± 0.036
[2]; ligand: 30 µM Zn
  sfGFP reporter fluorescence: 0.676 ± 0.084

## P61L L62I
[1]
  sfGFP reporter fluorescence: 0.063 ± 0.00064
[2]; ligand: 1 µM Pb
  sfGFP reporter fluorescence: 0.063 ± 0.0019
[2]; ligand: 30 µM Zn
  sfGFP reporter fluorescence: 0.0771 ± 0.0011
